Reference: patent publication US20220144937A1 (JIANGSU HENGRUI MEDICINE, published 2022)

T1: human IL-5 with his-tag (rhIL-5-his) (human, UniProt P05113 20-134)
T1 sequence: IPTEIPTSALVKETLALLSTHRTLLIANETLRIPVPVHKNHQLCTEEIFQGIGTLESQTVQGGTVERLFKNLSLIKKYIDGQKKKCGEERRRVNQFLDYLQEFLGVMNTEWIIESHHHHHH

T2: IFNgamma (UniProt P01579 24-166, limits assumed)
T2 sequence (looked up): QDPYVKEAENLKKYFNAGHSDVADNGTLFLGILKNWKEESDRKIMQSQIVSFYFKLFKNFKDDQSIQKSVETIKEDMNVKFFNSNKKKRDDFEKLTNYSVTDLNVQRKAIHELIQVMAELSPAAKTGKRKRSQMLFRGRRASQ

T3: IL31 (R&D, 2824-IL-010/CF) (UniProt Q6EBC2 24-164)
T3 sequence (looked up): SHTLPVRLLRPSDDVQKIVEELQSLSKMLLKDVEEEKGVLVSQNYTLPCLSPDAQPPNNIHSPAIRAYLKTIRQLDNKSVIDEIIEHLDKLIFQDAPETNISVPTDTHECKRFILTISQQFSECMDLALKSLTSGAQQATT

T4: IL3 (203-IL-050/CF) (UniProt P08700 20-152)
T4 sequence (looked up): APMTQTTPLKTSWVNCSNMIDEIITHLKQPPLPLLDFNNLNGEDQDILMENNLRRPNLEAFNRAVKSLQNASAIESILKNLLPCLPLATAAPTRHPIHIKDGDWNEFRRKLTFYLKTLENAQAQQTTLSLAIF

T5: IL25 (R&D, 8134-IL-025/CF) (UniProt Q9H293 33-177)
T5 sequence (looked up): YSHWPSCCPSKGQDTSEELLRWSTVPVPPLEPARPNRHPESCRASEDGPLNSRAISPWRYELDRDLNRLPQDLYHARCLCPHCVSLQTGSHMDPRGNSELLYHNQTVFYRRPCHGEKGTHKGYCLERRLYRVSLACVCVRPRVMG

T6: IL4 (R&D, 204-IL-050/CF) (UniProt P05112 25-153)
T6 sequence (looked up): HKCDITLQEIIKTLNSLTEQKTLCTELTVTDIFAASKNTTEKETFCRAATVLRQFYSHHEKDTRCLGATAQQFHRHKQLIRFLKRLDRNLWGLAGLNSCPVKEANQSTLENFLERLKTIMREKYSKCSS


Assays:
[1] = target: T1, human IL-5 with his-tag (rhIL-5-his); assay: cell-based or functional assay
[2] = target: T1, human IL-5 with his-tag (rhIL-5-his); assay: FACS blocking: biotin-IL-5 (100 ng/ml) binding to IL-5Rα/β-CHOS cells, antibody diluted
Procedure: Particular method was as follows: CD-CHO comprising […] and […] zeozin was used to culture CHO-S-IL-5Rα and β. During cell culture, the concentration should not exceed 3×10⁶ cells/ml. IL-5Rα/β-CHOS cells in good condition were centrifuged (at 1000 rpm, 5 min), and washed once with 10% FBS in PBS, and the cells were counted, the cell concentration was adjusted to 4×10⁶ cells/ml, and 25 μl was taken out and added into a round-bottom 96-well plate. The antibody to be tested was diluted with PBS solution comprising 10% FBS. The initial concentration was 200 μg/ml, and diluted at 1:10 for 8 gradient dilutions. 25 μl of 100 ng/ml IL-5 labeled by a biotin labeling kit (Tojin Chemical, LK03) was added, and fully mixed with 50 μl of diluted antibody at each concentration, and added into 96-well plate that has been added with cells, and incubated at 4° C. for 1 hour. After the incubation, the sample was centrifuged at 4° C. (400 g, 5 min), and the supernatant was removed, the plated was washed with 200 μl of pre-cooled PBS by centrifugation, repeated for twice; PE-Avidin secondary antibody diluted at 1:1333 was added and incubated in the dark at 4° C. for 40 min, centrifuged at 4° C.

[3] = target: T1, human IL-5 with his-tag (rhIL-5-his); assay: Biacore T200, antibody captured on protein A chip, antigen in flow, 1:1 Langmuir
Procedure: The affinity of the humanized IL-5 antibody to be tested with human IL-5 was measured by Biacore T200 (GE) instrument.
The protein A biosensor chip was used to affinity capture of the molecules to be tested, and then the antigen (prepared in Example 1) flowed through the surface of the chip, and the reaction signal was detected in real time with the Biacore T200 instrument to obtain the binding and dissociation curves. After the dissociation of each experimental cycle was completed, the biosensor chip was washed and regenerated with glycine-hydrochloric acid regeneration solution (pH 1.5). BIA evaluation version 4.1 GE software was used to fit the data against (1:1) Langmuir model, and the affinity value was obtained and shown in Table 14.

[4] = target: GMCSF (R&D, 215-GM-010/CF) (UniProt P04141 18-144); assay: Fortebio biolayer interferometry: antibody captured on Protein A biosensor, 40 nM cytokine injected; signal relative to IL-5 = 100%
Procedure: (§1) IL-5 was one of Th2 cytokines.
(§2) In particular: Protein A Biosensor (PALL Fortebio, 18-5010) was used to capture the antibody, the capture signal was recorded, and then 40 nM each cytokine was injected, the new binding signal was recorded. Finally, the binding signal with IL-5 was defined as 100%.

IFNgamma = target: T2, IFNgamma; assay: as above
Procedure: as §1, §2

[5] = target: IL6 (R&D, 7270-IL-025/CF) (UniProt P05231 30-212, limits assumed); assay: as above
Procedure: as §1, §2

[6] = target: IL10 (R&D, 217-IL-025/CF) (UniProt P22301 19-178); assay: as above
Procedure: as §1, §2

[7] = target: T3, IL31 (R&D, 2824-IL-010/CF); assay: as above
Procedure: as §1, §2

IL2 (R&D, 202-IL-010/CF) = IL2 (R&D, 202-IL-010/CF) (UniProt P60568 21-153); assay: as above
Procedure: as §1, §2

IL3 (203-IL-050/CF) = target: T4, IL3 (203-IL-050/CF); assay: as above
Procedure: as §1, §2

IL9 (R&D, 209-IL-010/CF) = IL9 (R&D, 209-IL-010/CF) (UniProt P15248 19-144); assay: as above
Procedure: as §1, §2

[8] = target: T5, IL25 (R&D, 8134-IL-025/CF); assay: as above
Procedure: as §1, §2

IL4 (R&D, 204-IL-050/CF) = target: T6, IL4 (R&D, 204-IL-050/CF); assay: as above
Procedure: as §1, §2

[9] = target: IL13 (R&D, 213-ILB-025/CF) (UniProt P35225 35-146); assay: as above
Procedure: as §1, §2

[10] = target: T1, human IL-5 with his-tag (rhIL-5-his); assay: cell-based or functional assay; remark: listed apart in the source

IL10 (R&D, 217-IL-025/CF), sequence (P22301 19-178 limits assumed): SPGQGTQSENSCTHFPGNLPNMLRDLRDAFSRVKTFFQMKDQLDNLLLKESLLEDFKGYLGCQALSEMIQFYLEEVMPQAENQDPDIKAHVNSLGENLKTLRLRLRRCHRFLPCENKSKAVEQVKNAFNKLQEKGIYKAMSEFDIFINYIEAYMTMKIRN
IL2 (R&D, 202-IL-010/CF), sequence (P60568 21-153 limits assumed): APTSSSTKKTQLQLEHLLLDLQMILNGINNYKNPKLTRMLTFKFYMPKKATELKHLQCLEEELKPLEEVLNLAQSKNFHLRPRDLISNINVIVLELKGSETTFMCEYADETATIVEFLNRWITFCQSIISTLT
IL13 (R&D, 213-ILB-025/CF), sequence (P35225 35-146 limits assumed): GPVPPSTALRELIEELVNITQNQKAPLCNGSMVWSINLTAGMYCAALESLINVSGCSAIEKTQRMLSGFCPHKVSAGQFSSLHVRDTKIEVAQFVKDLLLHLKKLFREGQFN
GMCSF (R&D, 215-GM-010/CF), sequence (P04141 18-144 limits assumed): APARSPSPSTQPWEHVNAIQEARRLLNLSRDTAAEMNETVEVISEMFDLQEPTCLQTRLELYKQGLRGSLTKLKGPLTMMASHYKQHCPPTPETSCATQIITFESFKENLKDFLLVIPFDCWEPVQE
IL9 (R&D, 209-IL-010/CF), sequence (P15248 19-144 limits assumed): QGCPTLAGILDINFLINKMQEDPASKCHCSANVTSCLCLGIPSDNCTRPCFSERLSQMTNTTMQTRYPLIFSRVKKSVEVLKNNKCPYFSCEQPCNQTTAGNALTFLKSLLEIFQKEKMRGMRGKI

| Binder | IC50 of inhibition of IL-5 induced TF1 cell proliferation [1] | IC50 [2] | Kd [3] | binding result [4] | binding result (IFNgamma) | binding result [5] | binding result [6] | binding result [7] | binding result (IL2 (R&D, 202-IL-010/CF)) | binding result (IL3 (203-IL-050/CF)) | binding result (IL9 (R&D, 209-IL-010/CF)) | binding result [8] | binding result (IL4 (R&D, 204-IL-050/CF)) | binding result [9] | IC50 of blocking IL-5 induced eosinophil adhesion [10] |
| --- | --- | --- | --- | --- | --- | --- | --- | --- | --- | --- | --- | --- | --- | --- | --- |
| h1706-009 (antibody, human IgG1, kappa, V domains shown) VH: EVQLVESGGGLVQPGGSLRLSCAASGFTFSHYYMAWVRQAPGKGLEWVSSINYEGNSAYYGDSVKGRFTISRDNSKNTLYLQMNSLRAEDTAVYYCATETLRESLDYWGQGTMVTVSS VL: DIQMTQSPSSVSASVGDRVTITCRASQDIGNYLSWYQQKPGKSPKLMIYSASNLEVGVPSRFSGSGSGTDYTLTISSLQPEDFATYFCLQHKQFPRTFGGGTKVEIKR | 0.25 nM | 24.7 ng/mL | 0.0545 nM | no binding (tested: 40 nM) | no binding (tested: 40 nM) | no binding (tested: 40 nM) | no binding (tested: 40 nM) | no binding (tested: 40 nM) | no binding (tested: 40 nM) | no binding (tested: 40 nM) | no binding (tested: 40 nM) | no binding (tested: 40 nM) | no binding (tested: 40 nM) | no binding (tested: 40 nM) | 4.3 ng/mL |
| h1705-008 (antibody, human IgG1, kappa, V domains shown, IgG1 with M252Y/S254T/T256E, kappa) VH: EVQLVESGGGLVQPGGSLRLSCAASGFTFSHYYMAWVRQAPGKGLEWVTSISYEGDITYYGDSVKGRFTISRDNSKNTLYLQMNSLRAEDTATYYCASQTLRESFDYWGQGTLVTVSS VL: DIQMTQSPSSVSASVGDRVTITCRASQDIANYLSWYQQKPGKSPKLLIYGTSNLEVGVPSRFSGSRSGTDFTLTISSLQPEDFATYYCLQDKEFPRTFGGGTKVEIKR | 0.2 nM | 14.5 ng/mL | 0.0342 nM | no binding (tested: 40 nM) | no binding (tested: 40 nM) | no binding (tested: 40 nM) | no binding (tested: 40 nM) | no binding (tested: 40 nM) | no binding (tested: 40 nM) | no binding (tested: 40 nM) | no binding (tested: 40 nM) | no binding (tested: 40 nM) | no binding (tested: 40 nM) | no binding (tested: 40 nM) | 4.85 ng/mL |
